The text below walks through data of publication PMC11425217, “CCDC68 Maintains Mitotic Checkpoint Activation by Promoting CDC20 Integration into the MCC” (Advanced Science, 2024).

Experiment [1] has as its target T1, GST‐CDC20 (human (cDNA from HEK293T cells), UniProt Q12834 1-499).
T1 construct: CDC20, full-length cDNA amplified from HEK293T cell cDNA; The legend names no limits; source: E. coli BL21, purified (Glutathione Sepharose 4B)
Description: pull-down; purified MBP, MBP‐CCDC68‐FL or MBP‐CCDC68‐Δ280–300 incubated with GST‐CDC20; Coomassie staining and immunoblot. To be noted: both partners purified. On the technique in general: Immunoblotting shows a protein as a band on a membrane.

In experiment [2] the target is T1, GST‐CDC20. Put plainly: pull-down; purified CCDC68 (50 nM) incubated with GST or the GST fusion protein; Coomassie staining and immunoblot. The note with it: both partners purified.

T1 sequence (Q12834 whole entry): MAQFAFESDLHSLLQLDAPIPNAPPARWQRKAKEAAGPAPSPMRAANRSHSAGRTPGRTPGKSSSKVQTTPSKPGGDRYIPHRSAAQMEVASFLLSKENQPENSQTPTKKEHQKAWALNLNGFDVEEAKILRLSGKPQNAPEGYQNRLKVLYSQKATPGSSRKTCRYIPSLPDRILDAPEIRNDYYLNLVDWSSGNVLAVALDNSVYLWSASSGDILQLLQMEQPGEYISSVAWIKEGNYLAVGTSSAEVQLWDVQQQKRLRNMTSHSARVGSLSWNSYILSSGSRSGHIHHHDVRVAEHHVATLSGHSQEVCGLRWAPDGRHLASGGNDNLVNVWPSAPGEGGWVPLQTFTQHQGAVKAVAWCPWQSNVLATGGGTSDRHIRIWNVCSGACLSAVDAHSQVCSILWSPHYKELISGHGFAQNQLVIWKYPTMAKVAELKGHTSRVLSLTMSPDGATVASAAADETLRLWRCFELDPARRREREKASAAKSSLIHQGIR

B1: MBP‐CCDC68‐Full length (FL) (natural protein, human (cDNA from HEK293T cells), UniProt Q9H2F9 1-335, looked up)
chain: MTTVTVTTEIPPRDKMEDNSALYESTSAHIIEETEYVKKIRTTLQKIRTQMFKDEIRHDSTNHKLDAKHCGNLQQGSDSEMDPSCCSLDLLMKKIKGKDLQLLEMNKENEVLKIKLQASREAGAAALRNVAQRLFENYQTQSEEVRKKQEDSKQLLQVNKLEKEQKLKQHVENLNQVAEKLEEKHSQITELENLVQRMEKEKRTLLERKLSLENKLLQLKSSATYGKSCQDLQREISILQEQISHLQFVIHSQHQNLRSVIQEMEGLKNNLKEQDKRIENLREKVNILEAQNKELKTQVALSSETPRTKVSKAVSTSELKTEGVSPYLMLIRLRK
notes: CCDC68, full-length cDNA amplified from HEK293T cell cDNA; Vector pCold‐MBP; also called MBP‐CCDC68‐FL; source: E. coli BL21, purified (Amylose Beads, eluted with maltose)
Take B1: the binding result in the experiment with GST‐CDC20 [1] is listed as “binds”.

B2: Purified CCDC68 (recombinant, from bacteria) (natural protein, human (cDNA from HEK293T cells), UniProt Q9H2F9 1-335, looked up)
chain: B1 chain
notes: CCDC68, full-length cDNA amplified from HEK293T cell cDNA; The legend names no limits; also called recombinant CCDC68; source: E. coli BL21, purified (eluted by cleaving the tag with PreScission protease)
B2: the binding result in the experiment with GST‐CDC20 [2] is recorded as “binds”.
